# Measurements: PMC10250227 (Nucleic Acids Research, 2023)
# Like-named read-outs stand apart in the source and are kept apart here.
# T1: NEQ395 (Nanoarchaeum equitans, UniProt Q74N22)
# T1 sequence (Q74N22 1-393): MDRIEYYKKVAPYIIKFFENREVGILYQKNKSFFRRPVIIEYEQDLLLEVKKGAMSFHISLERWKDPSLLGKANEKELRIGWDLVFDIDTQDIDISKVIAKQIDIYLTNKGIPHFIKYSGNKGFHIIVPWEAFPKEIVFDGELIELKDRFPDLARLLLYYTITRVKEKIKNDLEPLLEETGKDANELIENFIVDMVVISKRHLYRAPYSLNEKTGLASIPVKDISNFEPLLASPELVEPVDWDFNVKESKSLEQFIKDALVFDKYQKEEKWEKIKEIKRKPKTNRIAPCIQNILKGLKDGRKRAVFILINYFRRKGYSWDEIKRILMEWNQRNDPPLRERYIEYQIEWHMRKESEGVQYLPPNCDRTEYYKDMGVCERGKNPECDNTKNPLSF
# T2: NEQ395 DNA primase (monomeric PriS-PriL) (Nanoarchaeum equitans, UniProt Q74N22 1-393)
# T2 sequence: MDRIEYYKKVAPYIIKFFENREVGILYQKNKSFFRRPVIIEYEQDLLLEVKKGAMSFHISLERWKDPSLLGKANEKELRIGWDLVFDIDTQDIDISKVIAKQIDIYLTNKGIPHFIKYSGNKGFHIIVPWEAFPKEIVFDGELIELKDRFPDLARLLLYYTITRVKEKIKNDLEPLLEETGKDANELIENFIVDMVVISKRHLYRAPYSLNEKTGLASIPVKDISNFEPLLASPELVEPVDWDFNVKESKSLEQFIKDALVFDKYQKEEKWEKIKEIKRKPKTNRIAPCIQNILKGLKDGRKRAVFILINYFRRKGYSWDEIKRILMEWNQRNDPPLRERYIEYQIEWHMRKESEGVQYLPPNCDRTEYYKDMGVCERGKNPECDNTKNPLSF
# Assays:
# NEQ395 = molecular target: T1, NEQ395; assay: RP-HPLC primase assay with omission of single rNTPs; type: biochemical; details: pH 6.5, 70°C
# [1] = molecular target: T2, NEQ395 DNA primase (monomeric PriS-PriL); assay: fluorescence anisotropy
# [2] = molecular target: T2, NEQ395 DNA primase (monomeric PriS-PriL); assay: fluorescence anisotropy; remark: listed apart in the source
# [3] = molecular target: T2, NEQ395 DNA primase (monomeric PriS-PriL); assay: fluorescence anisotropy; remark: listed apart in the source
Molecule,Kd [1] [nM],Kd [3] [nM],also measured
Nc1ncnc2c1ncn2[C@@H]1O[C@H](COP(=O)(O)OP(=O)(O)OP(=O)(O)O)[C@@H](O)[C@H]1O [ATP],–,–,"RP-HPLC primase assay with omission of single rNTPs (NEQ395; initiating nucleotide, ssDNA template Fid1-4, Mn2+): using an rNTP mix without ATP (the first cognate base needed for synthesis) did not initiate"
Nc1nc2c(ncn2[C@@H]2O[C@H](COP(=O)(O)OP(=O)(O)OP(=O)(O)O)[C@@H](O)[C@H]2O)c(=O)[nH]1 [GTP],–,–,"RP-HPLC primase assay with omission of single rNTPs (NEQ395; elongating nucleotide, ssDNA template Fid2, Mn2+): In presence of GTP, extension to the full-length primers occurs."
TGTAAAACGACGGCCAGT (ssDNA) [t18],510,–,–
t18_ds (dsDNA) DNA 1: TGTAAAACGACGGCCAGT DNA 2: ACTGGCCGTCGTTTTACA,650,–,–
CTATACTCA (ssDNA) [t9],–,1060,Kd [2]: 580 nM
CTGTGCTCA (ssDNA) [t9-ATA (lacks ATA)],–,2870,–
